# Reference: the RNAGym collection of RNA variant scans (doi:10.7554/elife.90254)
# B1: OR4K15 (parent)
# chain: GUUAACGGUCAUAGGCCAUGGAAACUAGGAGCACCAUUUCGCUGCCAGUGAAGAAAUGAACAAAGAAAAUCUGGGCCAGGCAGGCAUCAAAAGAAAUAGUCUUGCGCUCAACCAGAAAGUCUGUAAUCAUUUUAAGGGUA
# Variants of: B1
# Test: self-cleavage, relative activity (ratio to wild type); higher = more cleavage; in vitro, sequencing; the parent is a self-cleaving ribozyme
row,Variant,self-cleavage
1,U57G A140U,1.23
2,U49C A66U,1.39
3,A4G A36G,1.43
4,U70A A135G,0.74
5,U9C U39C,1.45
6,A51G U127G,1.9
7,A52C A78C,0.21
8,U127C U132C,0.86
9,U57C U139C,1.94
10,A18U A30G,1.39
11,A11G U57C,0.63
12,C88U,1.83
13,A18U U132C,1.75
14,G29U A78U,0.35
15,A69U A82U,0.04
16,A91G A135G,1.06
17,A110G U127A,0.15
18,A30G A129G,1.02
19,U2C A55U,1.46
20,U39A A110G,0.04
21,A118U U130G,0.71
22,G104A U122C,0.02
23,A55G U130C,0.96
24,A33G,0.82

row,Variant,self-cleavage
1,A86G U130C,1.2
2,A36G C113U,0.07
3,U19C A47G,0.41
4,A59G U100A,0.63
5,A11G U49G,1.21
6,A30G U132G,0.69
7,A59G G79A,0.28
8,U131C U139C,0.46
9,U3C A66G,1.45
10,G73A A117U,0.17
11,A33U U37C,1.51
12,G7A A24G,1.4
13,A59U A110G,0.08
14,U108C A116G,0.01
15,U9C U122A,1.06
16,A63U U120C,1.25
17,U87C A89U,0.65
18,A63G U131A,0.45
19,A23G C105G,0.07
20,A52G A66G,1.75
21,A51U A111U,0.06
22,A33G A78U,0.14
23,A111U U120A,0.08
24,U39A A96G,1.56

row,Variant,self-cleavage
1,A96G A98G,0.91
2,U120C A134G,1.3
3,A18U A47G,1.05
4,A23C A117G,2.19
5,U87C U127C,0.64
6,A22U A33G,0.56
7,G41A U122G,1.51
8,A98G A135G,0.83
9,A52C A63G,2.56
10,C32G A95G,1.87
11,A66U A96G,1.17
12,G15A A95G,1.73
13,U97C U102A,0.47
14,A33U A55U,2.31
15,C16U U103C,0.77
16,G53A U100C,2.52
17,U37G U87A,1.38
18,U39C A126U,1.06
19,A82C A96G,0.11
20,U70C A135G,1.14
21,A63C G74U,0.15
22,A18U A68G,0.74
23,A89U A96G,1.73
24,A13G A18G,1.3

row,Variant,self-cleavage
1,U12A A24G,0.69
2,U19G A126G,1.18
3,A13C A60G,1.39
4,G21C,0.85
5,A126G U130C,0.61
6,A47G A114U,0.11
7,U100C A110C,1.12
8,G104A A111G,0.01
9,A4U A118G,1.08
10,A64U U72C,0.34
11,A118U U122C,0.89
12,U2A A24G,0.54
13,U2A A118G,0.95
14,U124C A129G,0.8
15,U12C A98G,0.74
16,U19C A82G,0.61
17,A51G G53U,1.66
18,A94G U132C,1.52
19,U70C A91G,0.6
20,G14C,1.4
21,A22G G74A,0.24
22,A96C G104A,0.02
23,A54G A98G,0.33
24,A64G A96C,0.76

row,Variant,self-cleavage
1,A64C G137A,1.49
2,A47G U100C,1.85
3,A63G U70C,1.08
4,A52U A90G,0.38
5,U87C U130C,0.55
6,G31A A82U,0.14
7,A54U A86G,0.36
8,A90U U131C,2.68
9,G83A A92G,1.87
10,U43A A86G,1.6
11,U70A U102A,0.25
12,U39G A67U,1.13
13,U49C A98C,1.84
14,A22G A125U,1.32
15,A33U U38C,2
16,U37A A114U,0.06
17,A55G A78U,0.18
18,A118U U132C,0.4
19,U102C A126G,1.89
20,A78U A96G,0.38
21,A125U U130C,1.66
22,G31A U87A,1.76
23,U72G A86G,0.1
24,A27G A96G,1.1

row,Variant,self-cleavage
1,A22G C42U,1.45
2,A67G G99U,0.62
3,U9C U43G,2.16
4,C32U A89G,0.89
5,U49C A96U,1.92
6,A51G U139C,1.69
7,A64G G74A,0.36
8,G115A C121A,0.33
9,C121U A135G,2.01
10,A23U C32U,2.28
11,A68G A92G,1.55
12,A52G U124C,1.18
13,U26C,1.26
14,G50U U120C,1.29
15,U2C U87A,0.9
16,A11G U97G,0.34
17,A5C G106U,0.07
18,A18G U57G,1.21
19,A47G A126G,1
20,A89G A126G,0.6
21,A89C A90G,0.73
22,A59U U103G,0.04
23,A47G U70A,0.83
24,A13G,0.79

row,Variant,self-cleavage
1,C16G A24G,0.51
2,A11G A82G,0.55
3,A51G A60U,1.68
4,U43C U103A,0.41
5,U70C A92G,0.82
6,A33G A110G,0.15
7,U100C A114G,1.34
8,A13G U127A,1.91
9,U70C C88U,1.54
10,U72C C109U,0.06
11,C46A C112U,0.01
12,A68G A91C,1.44
13,U26C A62G,1.47
14,A22U G44A,1.87
15,A69U A78G,0.32
16,C17A U103C,1.08
17,U120C A126G,0.27
18,A30G U124A,0.78
19,A33U U122C,1.02
20,A33C U39A,2.06
21,A78C A94G,0.39
22,U2C A82U,0.17
23,U2C U124C,0.42
24,A78G U97C,0.38

row,Variant,self-cleavage
1,U19C A36U,1.76
2,A47G U87A,1.63
3,A117C U122C,0.4
4,A24U A117G,1.85
5,A52G A62G,1.19
6,A51C A68G,1.2
7,A13U A54G,0.73
8,G21A A52G,1.57
9,C6U U131C,0.08
10,U19G A47U,1.08
11,C46A U120C,0.87
12,A52U U130C,1.8
13,C17U A135G,1.05
14,A5G C88A,0.8
15,U12C U122G,2.09
16,A126G A129U,0.83
17,A86G U87A,1.4
18,G104A A126U,0.09
19,G21U U72A,0.4
20,U49A A114U,0.04
21,U108C A114G,0.01
22,U43C U103C,1.03
23,A4G A30G,0.64
24,A78U A126U,0.35

row,Variant,self-cleavage
1,U19A A86U,1.87
2,A62C A96G,2.59
3,A96U A126G,1.58
4,A66G U108A,0.02
5,U57C A69U,1.63
6,A11G G79A,0.16
7,A125G G138A,0.47
8,U9C A64G,1.52
9,A90G A125U,1.7
10,C10A G44A,1.2
11,A18G A126C,0.48
12,U43A A68U,1.7
13,U57C U127C,0.66
14,A13G A95U,2.06
15,U2C C128A,0.85
16,U19C C105G,0.04
17,U108C U120C,0.01
18,A91U U97A,2.19
19,C40U A89U,1.93
20,U2C U120C,0.43
21,U49A A98U,0.26
22,A62G A78G,0.27
23,A68G G84A,2.58
24,A59G A68U,1.91

row,Variant,self-cleavage
1,A13U A30G,1.26
2,A62G U87A,1.71
3,A62U U131C,1.2
4,A68U A89G,1.53
5,A27U U139C,1.56
6,C85U U108G,0.01
7,U43A A111G,0.03
8,A62G A66G,1.48
9,C35U C88A,1.16
10,U19A A134U,0.89
11,A55C A59G,0.36
12,U102A U127C,0.74
13,A24G A59C,0
14,A52G A114G,0.28
15,U108C A140G,0.01
16,A4U A30U,1.05
17,U37C U49G,0.44
18,A92G A114G,0.29
19,A66G A89G,1.62
20,A59G A69C,0.6
21,G58U A67U,2.46
22,C6U U108C,0.08
23,U43A U72A,0.2
24,A125U A135G,0.55

row,Variant,self-cleavage
1,U49C U132G,0.91
2,A111G A129G,0.01
3,A36G A129G,1.3
4,U9C G106U,0
5,A13U U49C,1.28
6,U43A A47G,1.12
7,G20A A59U,0.83
8,G74A U130C,0.11
9,A47G A69U,1.35
10,A18G U102A,1.13
11,A59U U130C,1.05
12,U12C U43A,0.93
13,U49A U103C,0.93
14,A67G C88U,1.97
15,A82U U122A,0.16
16,U12C U38G,1.22
17,A69G A89U,1.53
18,A47U A126G,0.77
19,A4G U122C,0.78
20,A59G A91G,0.8
21,U19C A86G,1.37
22,A52C A89G,1.02
23,A66U C85U,1.09
24,U2C U133C,0.71

row,Variant,self-cleavage
1,A54G U132C,1.28
2,C35U U102A,0.81
3,A55G A96G,0.83
4,A98G A129U,0.3
5,A60G C71U,0.1
6,A24U A67U,1.89
7,G29A A96U,1.27
8,A24G G28A,1.11
9,U97C A126U,0.44
10,A47U A96G,1.28
11,C16U A30U,1
12,A54G A68G,0.91
13,A23C U132C,1.51
14,A82C A89C,0.16
15,G83A A98U,1.82
16,A56G U72A,0.26
17,A27G A56G,1.57
18,U12C C85A,0.75
19,C25U A86G,1.2
20,A110C U122A,0.24
21,A5U A36U,2.27
22,A24G G80C,0.1
23,A23U A126G,0.96
24,U26G,1.33

row,Variant,self-cleavage
1,A22G C25A,0.35
2,C35U U57C,0.58
3,A59U G137A,2.05
4,A63G A116U,0.57
5,U12A G138A,1.5
6,A94G C101A,0.3
7,A98G U102A,0.15
8,U2C U37C,1.26
9,A23G A82C,0.09
10,A96C U100A,0.96
11,A55G G136A,1.36
12,A116G U127A,0.72
13,A4G A33G,1.14
14,A90G U120C,0.58
15,A69U U130C,0.9
16,C77A U122C,0.6
17,U2C A82G,0.55
18,C6U U43A,0.96
19,U49C U102A,0.53
20,A18U U19C,0.12
21,G41U A78G,0.36
22,U72A U120A,0.17
23,A63U U100C,2.04
24,A11C U131C,0.89

row,Variant,self-cleavage
1,U132A A140U,0.14
2,U9C A51U,2.13
3,U39C A63G,1.66
4,A56U A63G,2.61
5,U12A U139C,1.59
6,A47G A94C,1.1
7,C34U A126G,1.12
8,A5U A114G,0.49
9,G79A A98G,0.03
10,A59U U100A,0.74
11,A59U A78U,0.31
12,A30U U103A,0.53
13,A4G U70C,0.79
14,A78G A110G,0.11
15,U43C A90G,0.97
16,U26A A66C,0.9
17,A63G A110C,0.38
18,A69G U131G,0.46
19,A18U A110C,0.23
20,U127C U130C,0.69
21,A68U A86G,1.44
22,A116G G136U,0.74
